Target: His-DnaNCg (Corynebacterium glutamicum sliding clamp, beta-clamp), purified (Corynebacterium glutamicum)
Assay: BLI

Row | Substance | Kd
1 | EndoMSCg (Corynebacterium glutamicum EndoMS/NucS), wild type, purified untagged protein (enzyme) | 185 nM
2 | EndoMSCg D144A mutant protein (enzyme) | 182 nM

Reference: PMC6159521
